From paper PMC13364712

Molecular target: actin filaments (actin from Gallus gallus skeletal muscle) (Gallus gallus (chicken)), P68139
Test: co-sedimentation; 4 µM EGFP–SFM peptide with 0–200 µM actin filaments in F buffer, 1 h at room temperature, 100,000g for 30 min; pellet read by anti-EGFP western blot; one-site specific binding fit; apparent

Kd: 2 µM
B1: EGFP-tagged ITPKA SFM peptide, P23677 1-461 (peptide)
chain: RRSVGELRLLFEARCAAVAAAA
modifications: not checked
